The source of these data is patent US6358738 (Harvard, dated 2002).

Series [1] concerns the target HA-Snk (UniProt P53351 1-682). Nature of the series: interaction of recombinant proteins produced in insect cells with baculovirus (GST-fusion). The source says: Full-length TCTP/p23 (SEQ ID No:27) cDNA was isolated and cloned into a pGEX vector to produce a GST-fusion protein.
Series [2] addresses T1, GST-fusion protein of full-length TCTP/p23.
T1 chain: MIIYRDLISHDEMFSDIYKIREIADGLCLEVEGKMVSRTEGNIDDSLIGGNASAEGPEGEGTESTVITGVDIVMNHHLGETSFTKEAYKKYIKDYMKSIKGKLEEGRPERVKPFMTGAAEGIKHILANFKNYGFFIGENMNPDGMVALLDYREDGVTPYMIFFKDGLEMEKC

For series [3], the target named is T2, Plk 323-499 (two-hybrid bait, wild-type polo box) (murine (mammalian Plk), UniProt Q07832 323-499).
T2 construct: Bait fusion expressed in yeast
Briefly: yeast two-hybrid.

Series [4] deals with T2, Plk 323-499 (two-hybrid bait, wild-type …). Briefly: yeast two-hybrid screen, mouse embryo cDNA library. The source says: Using the terminology of the two-hybrid system (Vojtek et al., 1993), vectors were engineered to have Plk carboxy terminal constructs as bait (see FIG. 11) and a mouse embryo 9.5/10.5-day cDNA library as prey. (A different strategy was used to identify TCTP/p23, i.e., full length Plk and a cDNA library from HeLa cells with inserts of 1–2 kb in the Examples, infra).

HA-Snk, sequence (P53351 whole entry, the tested form may be a part): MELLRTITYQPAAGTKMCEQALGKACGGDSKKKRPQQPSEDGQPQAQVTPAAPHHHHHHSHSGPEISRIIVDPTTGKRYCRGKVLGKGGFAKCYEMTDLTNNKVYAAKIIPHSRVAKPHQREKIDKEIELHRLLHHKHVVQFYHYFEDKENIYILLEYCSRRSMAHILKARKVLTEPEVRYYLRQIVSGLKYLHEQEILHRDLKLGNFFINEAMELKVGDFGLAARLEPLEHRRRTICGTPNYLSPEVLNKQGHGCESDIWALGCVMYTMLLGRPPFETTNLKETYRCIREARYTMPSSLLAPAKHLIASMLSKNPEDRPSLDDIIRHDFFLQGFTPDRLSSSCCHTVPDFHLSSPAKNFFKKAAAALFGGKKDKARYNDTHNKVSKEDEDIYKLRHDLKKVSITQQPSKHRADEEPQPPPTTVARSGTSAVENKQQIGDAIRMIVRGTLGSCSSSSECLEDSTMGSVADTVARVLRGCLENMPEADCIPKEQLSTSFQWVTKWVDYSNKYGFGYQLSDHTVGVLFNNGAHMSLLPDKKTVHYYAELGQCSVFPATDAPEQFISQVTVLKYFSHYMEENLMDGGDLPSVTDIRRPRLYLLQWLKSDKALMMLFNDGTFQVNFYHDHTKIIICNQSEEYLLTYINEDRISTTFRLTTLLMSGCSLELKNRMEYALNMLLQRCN

B1: GST-fusion protein of full-length TCTP/p23 (other)
chain: MIIYRDLISHDEMFSDIYKIREIADGLCLEVEGKMVSRTEGNIDDSLIGGNASAEGPEGEGTESTVITGVDIVMNHHLGETSFTKEAYKKYIKDYMKSIKGKLEEGRPERVKPFMTGAAEGIKHILANFKNYGFFIGENMNPDGMVALLDYREDGVTPYMIFFKDGLEMEKC
notes: Full-length TCTP/p23 cDNA cloned into a pGEX vector to produce a GST-fusion protein; also called GST-TCTP/p23; not shown: glutathione-S-transferase (GST) from pGEX vector
With B1, the binding result in series [1] is reported as “no binding”.

B2: HA-Plk (protein)
chain: MNAAAKAGKLARAPADLGKGGVPGDAVPGAPVAAPLAKEIPEVLVDPRSRRQYVRGRFLGKGGFAKCFEISDADTKEVFAGKIVPKSLLLKPHQKEKMSMEISIHRSLAHQHVVGFHDFFEDSDFVFVVLELCRRRSLLELHKRRKALTEPEARYYLRQIVLGCQYLHRNQVIHRDLKLGNLFLNEDLEVKIGDFGLATKVEYEGERKKTLCGTPNYIAPEVLSKKGHSFEVDVWSIGCIMYTLLVGKPPFETSCLKETYLRIKKNEYSIPKHINPVAASLIQKMLQTDPTARPTIHELLNDEFFTSGYIPARLPITCLTIPPRFSIAPSSLDPSSRKPLKVLNKGVENPLPDRPREKEEPVVRETNEAIECHLSDLLQQLTSVNASKPSERGLVRQEEAEDPACIPIFWVSKWVDYSDKYGLGYQLCDNSVGVLFNDSTRLILYNDGDSLQYIERDGTESYLTVSSHPNSLMKKITLLNYFRNYMSEHLLKAGANITPREGDELARLPYLRTWFRTRSAIILHLSNGTVQINFFQDHTKLILCPLMAAVTYINEKRDFQTYRLSLLEEYGCCKELASRLRYARTMVDKLLSSRSASNRLKAS
B2: the “phosphorylation of TCTP/p23 by Plk kinase activity” value in series [2] is “phosphorylated by Plk on serine residues at positions 46 and 64”.

B3: chaperonin-containing-TCP (CCT) epsilon subunit, amino acid residues 13-139, two-hybrid prey clone (other, not shown: large carriers)
chain: GRPFLIIKDQDRKSRLMGLEALKSHIMAAKAVANTMRTSLGPNGLDKMMVDKDGDVTITNDGATILSMMDVDHQIAKLMVELSKSQDDEIGDGTTGVVVLAGALLEEAEQLLDRGIHPIRIADGYEQ
notes: also called CCT-ε
Consider B3, for which the binding result in series [3] is “binds”.

B4: Plk 500-603 (two-hybrid prey clone) (other, not shown: large carriers)
chain: REGDELARLPYLRTWFRTRSAIILHLSNGTVQINFFQDHTKLILCPLMAAVTYINEKRDFQTYRLSLLEEYGCCKELASRLRYARTMVDKLLSSRSASNRLKAS
With B4, the binding result in series [4] is “binds”.
